Test results taken from the supplement of paper PMC10065799, “High-throughput profiling of sequence recognition by tyrosine kinases and SH2 domains using bacterial peptide display” (eLife, 2023).

Key:
Grb2 SH2 = Grb2 SH2 (UniProt P62993); assay: SH2 binding enrichment of the phosphorylated peptide, bacterial display (enrichment ratio); higher = better substrate or ligand; peptides without Tyr show the background
c-Src SH2 = assay: as above
SHP2-C SH2 = assay: as above
AncSZ = assay: phosphorylation enrichment, bacterial display (enrichment ratio); higher = better substrate or ligand; peptides without Tyr show the background
Fer (mouse) = assay: as above
c-Src = assay: as above
Fes = Fes (UniProt P07332); assay: as above
MERTK = MERTK (UniProt Q12866); assay: as above
FGFR3 = FGFR3 (UniProt P22607); assay: as above
EPHB2 = EPHB2 (UniProt P29323); assay: as above
Jak2 = Jak2 (UniProt O60674); assay: as above
Hck = Hck (UniProt P08631); assay: as above
EPHB1 = EPHB1 (UniProt P54762); assay: as above
FGFR1 = FGFR1 (UniProt P11362); assay: as above
c-Abl (mouse) = assay: as above
Fyn = Fyn (UniProt P06241); assay: as above
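Wherever SH2 binding enrichment of the phosphorylated peptide, bacterial display is given: peptide library displayed on the E. coli surface as eCPX fusions, selected cells deep-sequenced, score is each peptide's frequency after selection divided by its frequency in the input.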
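Wherever phosphorylation enrichment, bacterial display is given: 11-residue human phosphosite peptides and single-mutation variants displayed on the E. coli surface, counted by deep sequencing, each peptide's frequency after selection divided by its frequency in the unselected input library; frequency after pTyr selection over input frequency; kinase dosed for 20-30% of maximal phosphorylation in three min.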

Sequence of Jak2 (O60674 whole entry, looked up): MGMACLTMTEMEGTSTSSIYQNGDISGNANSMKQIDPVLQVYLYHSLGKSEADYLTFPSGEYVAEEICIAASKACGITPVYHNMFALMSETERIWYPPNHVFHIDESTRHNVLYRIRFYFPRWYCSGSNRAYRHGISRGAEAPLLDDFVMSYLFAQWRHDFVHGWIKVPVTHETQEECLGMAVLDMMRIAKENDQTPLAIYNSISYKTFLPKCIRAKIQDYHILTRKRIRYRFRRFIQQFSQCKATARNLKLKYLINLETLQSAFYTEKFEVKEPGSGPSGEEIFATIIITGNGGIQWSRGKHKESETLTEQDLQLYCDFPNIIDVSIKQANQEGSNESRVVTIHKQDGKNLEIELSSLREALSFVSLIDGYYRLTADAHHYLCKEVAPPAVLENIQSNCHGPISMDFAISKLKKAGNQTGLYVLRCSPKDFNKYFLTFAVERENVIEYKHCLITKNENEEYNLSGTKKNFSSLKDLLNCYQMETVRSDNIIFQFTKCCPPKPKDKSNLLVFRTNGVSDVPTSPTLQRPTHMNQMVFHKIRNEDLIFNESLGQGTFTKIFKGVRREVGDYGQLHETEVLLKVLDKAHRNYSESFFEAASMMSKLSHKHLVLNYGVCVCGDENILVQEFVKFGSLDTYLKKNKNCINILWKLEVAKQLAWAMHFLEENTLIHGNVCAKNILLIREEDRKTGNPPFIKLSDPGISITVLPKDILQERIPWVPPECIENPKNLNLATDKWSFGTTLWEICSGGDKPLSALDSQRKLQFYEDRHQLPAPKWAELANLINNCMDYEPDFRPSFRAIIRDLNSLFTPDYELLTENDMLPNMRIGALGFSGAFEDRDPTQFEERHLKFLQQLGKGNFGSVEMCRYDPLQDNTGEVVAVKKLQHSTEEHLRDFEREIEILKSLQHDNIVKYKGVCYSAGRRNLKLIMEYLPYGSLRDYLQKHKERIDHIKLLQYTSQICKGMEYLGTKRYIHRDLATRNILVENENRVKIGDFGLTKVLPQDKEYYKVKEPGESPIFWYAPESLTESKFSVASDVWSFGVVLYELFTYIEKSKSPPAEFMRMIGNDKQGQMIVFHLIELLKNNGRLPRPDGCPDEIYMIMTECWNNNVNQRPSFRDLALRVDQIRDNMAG
Sequence of FGFR1 (P11362 whole entry, looked up): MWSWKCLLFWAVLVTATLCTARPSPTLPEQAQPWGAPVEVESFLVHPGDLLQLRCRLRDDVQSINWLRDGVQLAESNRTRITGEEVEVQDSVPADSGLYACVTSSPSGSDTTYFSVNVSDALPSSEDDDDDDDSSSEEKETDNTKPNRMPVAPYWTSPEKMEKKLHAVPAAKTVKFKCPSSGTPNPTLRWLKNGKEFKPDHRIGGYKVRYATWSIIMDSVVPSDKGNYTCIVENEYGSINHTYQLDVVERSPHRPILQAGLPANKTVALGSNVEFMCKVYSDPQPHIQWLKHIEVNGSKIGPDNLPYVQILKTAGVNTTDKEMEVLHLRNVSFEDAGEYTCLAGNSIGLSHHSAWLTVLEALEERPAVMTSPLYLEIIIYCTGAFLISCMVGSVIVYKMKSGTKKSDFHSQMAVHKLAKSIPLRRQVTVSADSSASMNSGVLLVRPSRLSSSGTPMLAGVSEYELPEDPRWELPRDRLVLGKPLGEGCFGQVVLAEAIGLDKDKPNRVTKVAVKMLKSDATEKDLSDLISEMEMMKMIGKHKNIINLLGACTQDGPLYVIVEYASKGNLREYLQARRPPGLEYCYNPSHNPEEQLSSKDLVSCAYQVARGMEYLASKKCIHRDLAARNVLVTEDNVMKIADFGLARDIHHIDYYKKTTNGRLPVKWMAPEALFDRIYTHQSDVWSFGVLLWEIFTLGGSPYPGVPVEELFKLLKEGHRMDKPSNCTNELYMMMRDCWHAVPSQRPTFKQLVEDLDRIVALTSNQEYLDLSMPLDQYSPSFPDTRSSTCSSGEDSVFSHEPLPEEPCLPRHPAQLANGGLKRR
Sequence of Grb2 SH2 (P62993 whole entry, looked up): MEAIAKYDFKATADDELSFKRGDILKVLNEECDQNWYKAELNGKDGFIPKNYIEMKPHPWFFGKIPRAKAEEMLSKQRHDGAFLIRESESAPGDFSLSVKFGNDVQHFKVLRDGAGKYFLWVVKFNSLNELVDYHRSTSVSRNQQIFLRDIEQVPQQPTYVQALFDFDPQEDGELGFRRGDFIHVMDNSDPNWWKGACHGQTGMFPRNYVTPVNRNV
Sequence of Fyn (P06241 whole entry, looked up, the tested form may be a part): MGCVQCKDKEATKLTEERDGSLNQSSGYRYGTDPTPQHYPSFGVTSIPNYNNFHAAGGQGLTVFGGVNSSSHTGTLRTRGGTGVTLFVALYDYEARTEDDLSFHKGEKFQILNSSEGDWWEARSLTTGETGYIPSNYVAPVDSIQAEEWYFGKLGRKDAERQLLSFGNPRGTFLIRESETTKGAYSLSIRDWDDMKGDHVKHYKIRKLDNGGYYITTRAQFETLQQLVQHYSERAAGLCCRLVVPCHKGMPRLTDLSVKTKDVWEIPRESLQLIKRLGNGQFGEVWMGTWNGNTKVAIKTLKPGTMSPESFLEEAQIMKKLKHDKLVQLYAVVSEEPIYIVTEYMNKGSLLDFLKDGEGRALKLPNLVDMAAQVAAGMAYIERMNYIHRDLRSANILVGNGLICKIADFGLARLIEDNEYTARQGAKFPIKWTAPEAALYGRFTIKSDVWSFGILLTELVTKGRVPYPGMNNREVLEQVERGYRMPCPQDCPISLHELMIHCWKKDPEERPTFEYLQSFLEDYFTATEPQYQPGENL
Sequence of EPHB2 (P29323 whole entry, looked up): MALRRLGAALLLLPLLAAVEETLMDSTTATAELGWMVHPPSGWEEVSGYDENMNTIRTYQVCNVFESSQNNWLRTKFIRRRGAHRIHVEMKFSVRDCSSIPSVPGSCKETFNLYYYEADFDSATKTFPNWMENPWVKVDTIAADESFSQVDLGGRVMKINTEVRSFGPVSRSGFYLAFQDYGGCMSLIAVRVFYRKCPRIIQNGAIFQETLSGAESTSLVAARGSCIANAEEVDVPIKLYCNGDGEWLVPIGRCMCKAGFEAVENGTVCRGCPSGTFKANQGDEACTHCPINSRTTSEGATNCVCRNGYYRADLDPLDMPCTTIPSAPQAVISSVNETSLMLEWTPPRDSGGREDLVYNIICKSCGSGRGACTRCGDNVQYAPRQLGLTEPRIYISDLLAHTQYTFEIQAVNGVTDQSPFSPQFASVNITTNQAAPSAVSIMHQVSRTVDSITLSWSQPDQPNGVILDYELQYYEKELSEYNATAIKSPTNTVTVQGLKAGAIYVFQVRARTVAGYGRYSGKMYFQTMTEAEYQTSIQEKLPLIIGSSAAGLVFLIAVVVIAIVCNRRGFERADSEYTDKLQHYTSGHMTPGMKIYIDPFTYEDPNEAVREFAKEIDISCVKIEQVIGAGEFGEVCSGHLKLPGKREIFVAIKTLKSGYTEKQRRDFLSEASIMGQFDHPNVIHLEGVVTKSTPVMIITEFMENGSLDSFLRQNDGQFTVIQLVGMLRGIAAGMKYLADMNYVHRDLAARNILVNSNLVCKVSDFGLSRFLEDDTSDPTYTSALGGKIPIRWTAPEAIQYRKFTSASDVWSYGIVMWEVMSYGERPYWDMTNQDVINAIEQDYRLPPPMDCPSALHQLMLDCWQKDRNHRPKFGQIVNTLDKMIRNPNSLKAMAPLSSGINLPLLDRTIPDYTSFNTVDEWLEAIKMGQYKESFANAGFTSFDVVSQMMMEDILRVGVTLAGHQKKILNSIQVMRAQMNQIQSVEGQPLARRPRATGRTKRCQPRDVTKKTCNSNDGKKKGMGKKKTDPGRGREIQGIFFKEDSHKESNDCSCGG
Sequence of EPHB1 (P54762 whole entry, looked up): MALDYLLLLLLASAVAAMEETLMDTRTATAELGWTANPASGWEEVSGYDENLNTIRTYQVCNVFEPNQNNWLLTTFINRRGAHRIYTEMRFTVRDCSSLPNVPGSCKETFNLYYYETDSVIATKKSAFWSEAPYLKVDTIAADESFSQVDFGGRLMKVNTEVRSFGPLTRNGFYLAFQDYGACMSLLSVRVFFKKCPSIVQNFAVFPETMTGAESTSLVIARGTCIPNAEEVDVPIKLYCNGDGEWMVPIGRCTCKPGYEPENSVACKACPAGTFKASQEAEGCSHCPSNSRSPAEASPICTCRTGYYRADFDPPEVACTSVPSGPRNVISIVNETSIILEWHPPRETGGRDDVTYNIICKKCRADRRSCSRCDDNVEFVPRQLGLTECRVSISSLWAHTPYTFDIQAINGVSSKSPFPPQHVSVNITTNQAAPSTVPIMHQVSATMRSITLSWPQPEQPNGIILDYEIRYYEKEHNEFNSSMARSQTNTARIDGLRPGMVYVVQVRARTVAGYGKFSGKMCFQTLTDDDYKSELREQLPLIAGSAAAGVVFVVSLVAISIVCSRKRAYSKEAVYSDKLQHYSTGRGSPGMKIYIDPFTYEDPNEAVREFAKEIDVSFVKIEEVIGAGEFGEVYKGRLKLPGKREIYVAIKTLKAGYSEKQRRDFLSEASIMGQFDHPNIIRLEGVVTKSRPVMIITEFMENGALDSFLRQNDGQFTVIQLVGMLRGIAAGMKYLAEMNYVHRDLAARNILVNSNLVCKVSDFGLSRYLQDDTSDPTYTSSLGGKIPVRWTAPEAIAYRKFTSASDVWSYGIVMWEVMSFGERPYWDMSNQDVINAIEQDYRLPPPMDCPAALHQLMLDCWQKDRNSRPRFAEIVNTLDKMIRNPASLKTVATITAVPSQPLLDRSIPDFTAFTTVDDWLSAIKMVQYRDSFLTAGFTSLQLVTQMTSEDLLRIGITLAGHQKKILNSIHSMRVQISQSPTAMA

Row | Sequence | SH2 binding enrichment (Grb2 SH2) | SH2 binding enrichment (c-Src SH2) | SH2 binding enrichment (SHP2-C SH2) | phosphorylation enrichment (AncSZ) | phosphorylation enrichment (Fer (mouse)) | phosphorylation enrichment (c-Src) | phosphorylation enrichment (Fes) | phosphorylation enrichment (MERTK) | phosphorylation enrichment (FGFR3) | phosphorylation enrichment (EPHB2) | phosphorylation enrichment (Jak2) | phosphorylation enrichment (Hck) | phosphorylation enrichment (EPHB1) | phosphorylation enrichment (FGFR1) | phosphorylation enrichment (c-Abl (mouse)) | phosphorylation enrichment (Fyn)
1 | DLDLTSIFPNI [PTEN_Y27_Y27S_YF] | 0.722 | 0.48 | 0.524 | 0.861 | 0.441 | 0.358 | 0.814 | 0.447 | 0.578 | 0.485 | 0.726 | 0.497 | 0.402 | 0.301 | 0.677 | 0.475
2 | DPLASYLDKVR [KRT10_Y160_R156P] | 0.864 | 0.545 | 0.767 | 0.751 | 0.455 | 0.44 | 0.744 | 0.441 | 0.534 | 0.608 | 0.521 | 0.477 | 0.413 | 0.48 | 0.392 | 0.468
3 | DRLASYRDKVR [KRT12_Y139_L140R] | 0.878 | 1.09 | 0.947 | 0.466 | 0.366 | 0.347 | 0.447 | 0.332 | 0.425 | 0.338 | 0.587 | 0.327 | 0.294 | 0.27 | 0.442 | 0.372
4 | DRLAVCIDRVR [LMNA_Y45_Y45C] | 0.807 | 0.541 | 0.653 | 0.942 | 0.457 | 0.436 | 1.15 | 0.394 | 0.682 | 0.518 | 0.904 | 0.477 | 0.605 | 0.467 | 0.76 | 0.46
5 | DTQNSYRCATS [TSC1_Y304_G305R] | 0.956 | 0.554 | 0.594 | 0.771 | 0.392 | 0.449 | 0.726 | 0.466 | 0.486 | 0.501 | 0.612 | 0.42 | 0.389 | 0.565 | 0.593 | 0.538
6 | DVQNAYDSNHC [ZFYVE16_Y36] | 1.06 | 0.644 | 0.95 | 0.999 | 0.555 | 0.495 | 0.949 | 0.574 | 0.719 | 0.495 | 0.681 | 0.533 | 0.505 | 0.487 | 0.723 | 0.495
7 | EADRKYEEVAG [TPM3_Y163_R168G] | 0.93 | 21.4 | 0.772 | 1.12 | 0.464 | 0.452 | 1.07 | 0.48 | 0.685 | 0.578 | 0.998 | 0.523 | 0.655 | 0.6 | 0.613 | 0.508
8 | EAIAKYDFKAT [GRB2_Y7] | 0.775 | 0.465 | 0.679 | 0.658 | 0.327 | 0.393 | 0.827 | 0.396 | 0.528 | 0.412 | 0.597 | 0.387 | 0.488 | 0.587 | 0.618 | 0.408
9 | EARRVYGDIIF [ALDH5A1_Y175_H180Y_YF] | 0.818 | 0.485 | 0.689 | 0.683 | 0.493 | 0.654 | 0.897 | 0.536 | 0.578 | 0.448 | 0.719 | 0.509 | 0.4 | 0.505 | 0.637 | 0.635
10 | EASGIYVKSII [PATJ_Y396] | 0.994 | 0.466 | 0.674 | 1.02 | 0.492 | 0.458 | 1.13 | 0.438 | 0.659 | 0.535 | 0.983 | 0.52 | 0.543 | 0.523 | 0.677 | 0.429
11 | EATKGYLDDPT [G6PD_Y322] | 0.785 | 0.567 | 0.525 | 0.859 | 0.553 | 0.392 | 1.03 | 0.455 | 0.593 | 0.473 | 0.949 | 0.421 | 0.655 | 0.412 | 0.774 | 0.424
12 | ECKLFYSRKEG [PTPN11_Y263_L262F] | 0.746 | 0.436 | 0.623 | 1.08 | 0.445 | 0.465 | 1 | 0.515 | 0.602 | 0.451 | 0.685 | 0.626 | 0.502 | 0.457 | 0.768 | 0.401
13 | EDEGLYTVRVP [MYOM3_Y343_M344T] | 0.83 | 0.488 | 0.617 | 1.64 | 1.38 | 3.4 | 1.24 | 1.84 | 0.939 | 0.692 | 1.04 | 4.08 | 0.766 | 0.633 | 0.737 | 3.52
14 | EDKFMYLEFPQ [PTEN_Y240_F241L] | 0.797 | 0.435 | 0.616 | 1.71 | 0.673 | 1.2 | 1.34 | 0.664 | 2.26 | 0.756 | 1.38 | 1.01 | 0.879 | 2.44 | 1.14 | 0.889
15 | EDKSIYRRGAC [PRKCI_Y125_R130C] | 0.941 | 0.514 | 0.831 | 0.496 | 0.35 | 0.315 | 0.705 | 0.406 | 0.495 | 0.429 | 0.532 | 0.405 | 0.34 | 0.42 | 0.474 | 0.375
16 | EEALYYLTRVE [SET_Y119_H118Y] | 0.947 | 0.669 | 1.39 | 2.55 | 5.28 | 4.59 | 1.43 | 6.68 | 9.52 | 1.91 | 2.69 | 4.07 | 1.85 | 9.54 | 1.53 | 4.26
